Patent publication US20210087294A1 (University of Pennsylvania, published 2021)

How the values were obtained:
[1] = target: T1, murine fibroblast activation protein (FAP) (murine, UniProt P97321 1-761); assay: flow cytometry on BALB/c 3T3 cells expressing a murine FAP transgene
T1 construct: whole, on cells; also called mouse FAP; murine FAP
T1 sequence (looked up): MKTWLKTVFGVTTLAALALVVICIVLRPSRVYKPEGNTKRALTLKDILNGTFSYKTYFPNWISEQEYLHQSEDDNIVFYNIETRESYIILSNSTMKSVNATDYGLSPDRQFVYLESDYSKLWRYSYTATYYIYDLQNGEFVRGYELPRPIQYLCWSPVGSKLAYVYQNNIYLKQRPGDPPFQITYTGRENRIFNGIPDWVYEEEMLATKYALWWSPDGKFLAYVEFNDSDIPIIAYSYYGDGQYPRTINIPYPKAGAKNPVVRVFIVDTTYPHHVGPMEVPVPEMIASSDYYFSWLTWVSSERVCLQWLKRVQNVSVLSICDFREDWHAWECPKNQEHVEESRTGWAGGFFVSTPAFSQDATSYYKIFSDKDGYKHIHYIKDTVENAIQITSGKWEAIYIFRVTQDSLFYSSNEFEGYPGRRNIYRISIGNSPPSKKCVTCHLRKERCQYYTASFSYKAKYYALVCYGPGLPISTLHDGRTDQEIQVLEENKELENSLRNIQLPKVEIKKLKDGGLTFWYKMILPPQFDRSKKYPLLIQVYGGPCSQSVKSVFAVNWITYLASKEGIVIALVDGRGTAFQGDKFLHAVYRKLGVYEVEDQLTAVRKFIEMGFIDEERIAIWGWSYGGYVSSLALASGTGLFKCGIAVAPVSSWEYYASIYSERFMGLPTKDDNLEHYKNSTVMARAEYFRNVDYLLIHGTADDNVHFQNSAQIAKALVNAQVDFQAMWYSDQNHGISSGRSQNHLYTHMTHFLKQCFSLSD
Text: (§1) On day 241, 2017 spleens were harvested, a single cell suspension prepared, and splenocytes fused with sp2/0 cells by the UPENN Hybridoma Core Facility. Hyridomas supernatants were initially screened by FACS on MC KOSA parental (FAP null) vs. canine FAP-transgene expressing MC KOSA.K9FAP using hybridoma supernatants as the primary antibodies and AF488 goat anti-mouseIgG as a secondary. Clone 4G5 identified as reactive to transduced cells but not parental cells and screened on additional cells to confirm reactivity with FAP expressing but not FAP-negative cells: Human primary fibroblasts, BALB/c 3T3 expressing murine or human FAP transgenes, canine primary fibroblasts, SK KOSA (FAP expressing), and BALB/c 3T3 (FAP negative) cells. 4G5 was then determined to be an IgG1k isotype antibody using (Thermo Fisher Rapid ELISA Mouse mAb Isotyping Kit #37503)
(§2) BALB/c 3T3 fibroblast cells transduced to express full-length canine FAP were then used to immunize 14 week old BALB/c FAP^{-/-} mice. All injections were given intraperitoneally and consisted of 1×10⁷ cells in 0.5 ml sterile PBS. The initial immunization was followed by six booster immunizations at regular intervals over the next eight months. At the conclusion of the study, spleens were harvested, and the resulting single-cell suspensions were used to generate hybridomas via fusion with sp2/0 cells. […]

[2] = target: T2, human fibroblast activation protein (FAP) (human, UniProt Q12884 1-760); assay: flow cytometry on human primary fibroblasts and on BALB/c 3T3 cells expressing a human FAP transgene
T2 construct: whole, on cells; also called human FAP; huFAP
T2 sequence (looked up): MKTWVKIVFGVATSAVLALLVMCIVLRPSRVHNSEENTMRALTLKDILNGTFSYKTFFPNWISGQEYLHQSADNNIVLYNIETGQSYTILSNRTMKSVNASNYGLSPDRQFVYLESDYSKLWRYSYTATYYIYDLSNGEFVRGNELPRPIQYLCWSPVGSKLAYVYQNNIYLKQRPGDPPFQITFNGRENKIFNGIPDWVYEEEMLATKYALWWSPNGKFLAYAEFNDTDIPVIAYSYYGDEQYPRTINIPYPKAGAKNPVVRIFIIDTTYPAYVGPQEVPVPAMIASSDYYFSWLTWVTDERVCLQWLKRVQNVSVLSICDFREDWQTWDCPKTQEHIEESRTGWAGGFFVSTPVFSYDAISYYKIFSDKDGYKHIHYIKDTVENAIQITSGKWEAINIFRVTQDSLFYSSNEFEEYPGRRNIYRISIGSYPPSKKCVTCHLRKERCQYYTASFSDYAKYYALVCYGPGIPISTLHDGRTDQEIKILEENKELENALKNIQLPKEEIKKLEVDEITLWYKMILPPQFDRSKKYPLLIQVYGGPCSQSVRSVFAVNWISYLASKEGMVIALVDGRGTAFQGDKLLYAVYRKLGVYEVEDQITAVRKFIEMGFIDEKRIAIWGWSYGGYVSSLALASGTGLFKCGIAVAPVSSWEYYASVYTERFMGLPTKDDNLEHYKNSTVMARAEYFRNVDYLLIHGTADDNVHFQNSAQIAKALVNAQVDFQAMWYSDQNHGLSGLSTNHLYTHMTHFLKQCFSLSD
Text: as §1, §2

B1: 4G5 anti-canine FAP antibody (antibody, V domains shown)
VH: QVQLQQPGAELVKPGASVKLSCKASGYTITSYSLHWVKQRPGQGLEWIGEINPANGDHNFSEKFEIKATLTVDSSSNTAFMQLSRLTSEDSAVYYCTRLDDSRFHWYFDVWGAGTTVTVSS
VL: QIVLTQSPALMSASPGEKVTMTCTASSSVSYMYWYQQKPRSSPKPWIFLTSNLASGVPARFSGRGSGTSFSLTISSMEAEDAATYYCQQWSGYPPITFGSGTKLEIK
notes: Mouse hybridoma monoclonal antibody, tested as hybridoma supernatant or immunoglobulin; also called clone 4G5; 4G5 immunoglobulin
- binding result [1]: binds
- binding result [2]: binds
